Assay results: PMC3458052, “Single Amino Acid Substitutions in the Chemotactic Sequence of Urokinase Receptor Modulate Cell Migration and Invasion” (PLoS ONE, 2012)

Target: T1, uPAR carrying the S90P substitution (human, UniProt Q03405 23-305, S90P)
T1 construct: human uPAR, whole cDNA in pcDNA3 with S90P made by site-specific mutagenesis, on 293 cells; also called uPAR^S90P; source: on intact adherent cells and in RIPA lysate
Assay: radioligand binding; 10 nM ^125I-Vn with increasing unlabeled Vn on adherent transfected 293 clones (2×10^5 cells/well), 3 hours at 4°C, binding buffer DMEM, 1 mg/ml BSA, 10 mM Hepes pH 7.4; surface-bound label recovered by acid wash pH 3.0; apparent Kd; cells also carry endogenous αvβ5
Settings: one partner purified

T1 sequence (Q03405 23-305 S112P): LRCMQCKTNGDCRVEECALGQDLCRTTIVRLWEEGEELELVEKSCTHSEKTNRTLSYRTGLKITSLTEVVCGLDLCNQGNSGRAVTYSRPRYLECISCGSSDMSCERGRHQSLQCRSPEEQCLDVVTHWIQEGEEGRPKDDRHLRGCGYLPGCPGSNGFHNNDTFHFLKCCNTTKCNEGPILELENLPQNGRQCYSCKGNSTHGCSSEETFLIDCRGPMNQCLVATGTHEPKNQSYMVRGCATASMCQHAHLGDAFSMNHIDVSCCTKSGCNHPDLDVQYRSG

B1: vitronectin (ligand, UniProt P04004 20-478, looked up)
chain: DQESCKGRCTEGFNVDKKCQCDELCSYYQSCCTDYTAECKPQVTRGDVFTMPEDEYTVYDDGEEKNNATVHEQVGGPSLTSDLQAQSKGNPEQTPVLKPEEEAPAPEVGASKPEGIDSRPETLHPGRPQPPAEEELCSGKPFDAFTDLKNGSLFAFRGQYCYELDEKAVRPGYPKLIRDVWGIEGPIDAAFTRINCQGKTYLFKGSQYWRFEDGVLDPDYPRNISDGFDGIPDNVDAALALPAHSYSGRERVYFFKGKQYWEYQFQHQPSQEECEGSSLSAVFEHFAMMQRDSWEDIFELLFWGRTSAGTRQPQFISRDWHGVPGQVDAAMAGRIYISGMAPRPSLAKKQRFRHRNRKGYRSQRGHSRGRNQNSRRPSRATWLSLFSSEESNLGANNYDDYRMDWLVPATCEPIQSVFFFSGDKYYRVNLRTRRVDTVDPPYPRSIAQYWLGCPAPGHL
modifications: ^125I (radio-iodinated with Na^125I using IODO-BEADS) on the tracer; the competitor is unlabeled
notes: vitronectin (Vn), bought from Promega; also called Vn; ^125I-Vn; source: bought: Promega
In the case of B1, the IC50 is reported as ~10 nM.
